What was measured:
[1] = target: T1, human TIGIT, full length, on cells (human, UniProt Q495A1 22-244); test: cell-based or functional assay
T1 sequence: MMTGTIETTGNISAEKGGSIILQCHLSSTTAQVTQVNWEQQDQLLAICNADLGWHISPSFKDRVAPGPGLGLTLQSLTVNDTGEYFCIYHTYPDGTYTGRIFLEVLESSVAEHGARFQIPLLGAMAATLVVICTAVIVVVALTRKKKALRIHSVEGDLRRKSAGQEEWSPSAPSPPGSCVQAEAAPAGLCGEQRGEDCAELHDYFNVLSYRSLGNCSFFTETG

[2] = target: T1, human TIGIT, full length, on cells; test: flow cytometry, inhibition of hCD155-Fc binding to CHO-hTIGIT cells
Protocol: The activity of Hu24F8.1-IgG1.AA and Hu24F8.2-IgG1.AA to block the interaction of TIGIT with CD155 was analyzed by flow cytometry using CHO cells stably overexpressing human TIGIT (CHO-hTIGIT) and human CD155-Fc fusion recombinant soluble protein (hCD155-Fc), as described in Example 1. […] The IC₅₀ for Hu24F8.1-IgG1.AA to block the TIGIT-CD155 interaction was 0.68 nM, and for Hu24F8.2-IgG1.AA it was 0.67 nM.

cTIGIT-His = target: T2, cTIGIT-His (cynomolgus monkey); test: SPR, Biacore T200, antibody captured on anti-human IgG chip, cTIGIT-His as analyte
T2 construct: also called His-tagged cyno TIGIT protein extracellular domain; soluble cTIGIT-His
T2 chain: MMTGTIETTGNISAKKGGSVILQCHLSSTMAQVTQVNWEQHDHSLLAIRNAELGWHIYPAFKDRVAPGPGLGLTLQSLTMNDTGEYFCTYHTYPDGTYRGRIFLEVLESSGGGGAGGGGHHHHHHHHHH
Protocol: (§1) The purified, full-length antibodies Hu24F8.1-IgG1.AA (containing VH1+VL2) and Hu24F8.2-IgG1.AA (containing VH2+VL2), together with the full-length chimera antibody of 24F8 mouse VH+VL and human IgG1/kappa constant domains (Ch24F8), were analyzed by SPR using a Biacore T200 instrument with antibody capture using an anti-human IgG coated chip and soluble hTIGIT-His or cTIGIT-His as the analyte.

hTIGIT-His = target: T3, hTIGIT-His (human); test: SPR, Biacore T200, antibody captured on anti-human IgG chip, hTIGIT-His as analyte
T3 construct: also called His-tagged human TIGIT protein extracellular domain; soluble hTIGIT-His
T3 chain: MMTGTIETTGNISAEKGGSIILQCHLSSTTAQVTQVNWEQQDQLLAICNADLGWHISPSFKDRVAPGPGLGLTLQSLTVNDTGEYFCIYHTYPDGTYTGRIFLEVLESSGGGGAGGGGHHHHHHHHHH
Protocol: as §1

[3] = target: T4, cynomolgus monkey TIGIT, full length, on cells (cynomolgus monkey); test: flow cytometry on stable CHO-K1 cells expressing cyno TIGIT (clone C10); cyno TIGIT, CHO-K1 clone C10, n=6
T4 construct: Whole entry of 312 amino acids; also called cyno TIGIT; cTIGIT
Protocol: (§2) Binding of antibodies Hu24F8.1-IgG1.AA and Hu24F8.2-IgG1.AA to TIGIT expressed on cell surface was examined by flow cytometry. Cells expressing TIGIT on cell surface were collected and incubated in 100 μL of HBSS Buffer in the presence (or absence) of various concentrations of antibody for 1 hr at 4° C. After washing with HBSS, antibody binding on cells was detected with 2 μg/mL of Alexa488-labeled goat anti-human IgG antibody (ThermoFisher Scientific, Cat #A-11013) for 30 min at 4° C. Cells were then washed and resuspended in PBS and subjected to flow cytometry using a Attune NxT flow cytometer (ThermoFisher Scientific, Waltham, Mass.). GeoMean of fluorescence intensity was obtained for the whole single cell population, and for transient transfection, non-transfected cells were used to gate for the positive binding cell population to obtain percent of positive cells. Data was calculated by GraphPad Prism using the standard 4-parameter curve fitting.
(§3) Stable CHO-K1 cell lines expressing human TIGIT (clone 2A7) and cyno TIGIT (clone C10) were used to test Hu24F8.1-IgG1.AA and Hu24F8.2-IgG1.AA for their binding to human TIGIT and cyno TIGIT, respectively, as described above. […] Hu24F8.2-IgG1.AA bound to human TIGIT with an EC₅₀ 0.29±0.15 nM (n=8) (FIG. 3A) and to cyno TIGIT with an EC₅₀ of 0.35±0.16 nM (n=6) (FIG. 3B).

[4] = target: T1, human TIGIT, full length, on cells; test: flow cytometry on stable CHO-K1 cells expressing human TIGIT (clone 2A7); human TIGIT, CHO-K1 clone 2A7, n=8
Protocol: as §2, §3

- EC50 of luciferase reporter activity, TIGIT/CD155 Blockade Bioassay (Jurkat cells overexpressing TIGIT with CD155 aAPC/CHO-K1 cells) [1]: 3350 pM
- IC50 [2]: 680 pM
- Kd (cTIGIT-His): 1740 pM
- koff (cTIGIT-His): 0.0014 s⁻¹
- kon (cTIGIT-His): 806000 M⁻¹ s⁻¹
- Kd (hTIGIT-His): 144 pM
- koff (hTIGIT-His): 0.000145 s⁻¹
- kon (hTIGIT-His): 1.01e+06 M⁻¹ s⁻¹
- EC50 [3]: 237 pM
- EC50 [4]: 447 pM
B1: Hu24F8.1-IgG1.AA (antibody, V domains shown)
VH: QVQLQESGPGLVKPSETLSLTCAVYGYSITSGYSWHWIRQPPGKGLEWIGYVHYSGSTNYNPSLKSRVTISVDTSKNQFSLKLSSVTAADTAVYYCARMDYGNYGGAMDYWGQGTLVTVSS
VL: EIVMTQSPATLSVSPGERATLSCKASQDVRTAVAWYQQKPGQAPRLLIYSASYRYTGIPARFSGSGSGTEFTLTISSLQSEDFAVYYCQQYYSTQWTFGGGTKVEIKR
notes: IgG1/kappa; also called Hu24F8.1 (VH1+VL2), IgG1/kappa with L234A/L235A

Source: patent US20220064294A1 (ARCUS BIOSCIENCES, published 2022)
